B1: Manganese-dependent inorganic pyrophosphatase, P37487 (parent)
chain: MEKILIFGHQNPDTDTICSAIAYADLKNKLGFNAEPVRLGQVNGETQYALDYFKQESPRLVETAANEVNGVILVDHNERQQSIKDIEEVQVLEVIDHHRIANFETAEPLYYRAEPVGCTATILNKMYKENNVKIEKEIAGLMLSAIISDSLLFKSPTCTDQDVAAAKELAEIAGVDAEEYGLNMLKAGADLSKKTVEELISLDAKEFTLGSKKVEIAQVNTVDIEDVKKRQAELEAVISKVVAEKNLDLFLLVITDILENDSLALAIGNEAAKVEKAFNVTLENNTALLKGVVSRKKQVVPVLTDAMAE

“And” between values parts separate entries of the source, which are not always exact repeats. Equal entries are not always repeated.

The variants in one series derive from B1. As to conditions: Bacillus subtilis (strain 168); pH 7.2; Thermal; CD; TES-KOH 21 mM; KCl 4 mM; reversible: No; structure 1K23; whole UniProt chain shown.
Take D203E: the Tm (as a rule, the temperature at the midpoint of the melting transition) came out at 42 °C.

Consider H9Q, for which the Tm worked out at 54 °C.

Regarding H76Q, the Tm is 59 °C.

D13E: the midpoint of thermal melting (Tm) was 44 °C and 42 °C.

As for H98Q, the Tm was found to be 48 °C.

As to D149E, the Tm is 52 °C and 47 °C.

Still in this series, the particulars now being: Bacillus subtilis (strain 168); pH 7.2; Thermal; CD; TES-KOH 21 mM; KCl 4 mM; transition: 3; reversible: No; structure 1K23; whole UniProt chain shown.
For D13E, the Tm came to 69 °C.

Values taken from FireProtDB (doi:10.1021/bi047926u).
